Assay results from the RNAGym collection of RNA variant scans (doi:10.1073/pnas.2313332121).

B1: TPR t1 (parent)
chain: GACCAAUCUGCCCUCAGAGCUCGAGAACAUCUUCGGAUGCAGAGGAGGCAGGCUUCGGUGGCGCGAUAGCGCCAACGUCCUCAACCUCCAAUGCAUCCCACCACAUGAUGAUGCCUGAAGAGCCUUGGUUUUUUG

Variants of: B1
Test: polymerase ribozyme fitness, log enrichment relative to wild type (log ratio); higher = more active; in vitro selection for triplet polymerase activity
Procedure, shortened: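 For each subunit of a heterodimeric triplet polymerase ribozyme, a mutant library was built by PCR and transcribed, then taken through a single in vitro selection round in triplicate. Selection involved annealing to a biotinylated primer, the partner subunit and triplets, incubation frozen at −7 °C, gel excision of extended constructs, capture on streptavidin beads and RT-PCR. Genotypes were retained after Illumina sequencing of inputs and outputs only with ≥10 input reads and ≥1 read in each output. Fitness is defined as the logarithm of a genotype's enrichment relative to wild-type enrichment, using inverse-variance-weighted averages across replicates, with the logarithm taken to base 2.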

Going from C85G U132A to C88A U133A, the “polymerase ribozyme fitness (log ratio)” value rises from -1.6 to 0.0129.

First: C97A C124A
Second: C94G U131G U132G
The “polymerase ribozyme fitness (log ratio)” value of the first is lower: -2.9 for the first, -1.88 for the second.

First: C86A A90G
Second: C86A A90U
The “polymerase ribozyme fitness (log ratio)” value of the first is higher: 0.132 for the first, -1.19 for the second.

First: C94A C114A G122A
Second: C86G C101A
The “polymerase ribozyme fitness (log ratio)” value of the first is lower: -3 for the first, -1.32 for the second.

First: G93A C114A A118C
Second: C89U A108G A119G U131G U132C
The “polymerase ribozyme fitness (log ratio)” value of the first is lower: -3.7 for the first, -1.34 for the second.

Going from C85U C86G to C86A C123U C124G, the “polymerase ribozyme fitness (log ratio)” value rises from -1.13 to 0.744.

Going from C94G C101U to C88A C101U A111U, the “polymerase ribozyme fitness (log ratio)” value falls from -1.46 to -3.57.

Compared with C89A G93A U106A, C94A U112A is higher in “polymerase ribozyme fitness (log ratio)” value: -3.07 for the first, 1.02 for the second.

Compared with C85A C102U A121U C124U, A95G A111C G113A A119C G120C is lower in “polymerase ribozyme fitness (log ratio)” value: -1.07 for the first, -3.77 for the second.

Compared with C85G U130G, A90U A105G is lower in “polymerase ribozyme fitness (log ratio)” value: -2.71 for the first, -3.78 for the second.

First: C86G A100U G128C
Second: G93A G117C U130G
The “polymerase ribozyme fitness (log ratio)” value of the first is higher: -3.41 for the first, -5.98 for the second.

Compared with C86U C97U, U87C U130C is higher in “polymerase ribozyme fitness (log ratio)” value: -0.517 for the first, 0.298 for the second.

Going from A91C U96A to C88U G93A A108G C115U A118U G135C, the “polymerase ribozyme fitness (log ratio)” value falls from -2.09 to -4.45.

First: C85G G117C
Second: G93U C124G
The “polymerase ribozyme fitness (log ratio)” value of the first is lower: -5.23 for the first, 0.697 for the second.

First: C85A C89A U106A C114A
Second: C86U A103C
The “polymerase ribozyme fitness (log ratio)” value of the first is higher: -5.22 for the first, -5.52 for the second.

Compared with C89A U129G, C94A C123U is higher in “polymerase ribozyme fitness (log ratio)” value: -2.64 for the first, 0.185 for the second.

Going from A90U U116C to C97G A121U, the “polymerase ribozyme fitness (log ratio)” value falls from -1.26 to -2.07.

Compared with C86G C102G C115A U133A, U87A G120U is higher in “polymerase ribozyme fitness (log ratio)” value: -5.49 for the first, 0.227 for the second.

Going from C97U G120U U130C to C94A C98A, the “polymerase ribozyme fitness (log ratio)” value falls from -0.251 to -6.59.

First: A90G U112A
Second: C86G C89A C114A
The “polymerase ribozyme fitness (log ratio)” value of the first is higher: 1.08 for the first, -4.58 for the second.

Going from C85A C101G U109G G117C to G93C A121U U133G, the “polymerase ribozyme fitness (log ratio)” value rises from -7.01 to 1.15.

Going from G93C U106C U112C to A90G A95C, the “polymerase ribozyme fitness (log ratio)” value falls from 0.785 to -0.759.

First: U92A C123A
Second: U92A C123G
The “polymerase ribozyme fitness (log ratio)” value of the first is lower: -3.22 for the first, -0.636 for the second.

Going from C94G C102A to C86A G120U, the “polymerase ribozyme fitness (log ratio)” value rises from -3.54 to -0.761.

First: C97U U112G
Second: C85A U116C
The “polymerase ribozyme fitness (log ratio)” value of the first is higher: -0.123 for the first, -2.08 for the second.

Going from C85A A100C to U96A G117C, the “polymerase ribozyme fitness (log ratio)” value falls from -2.71 to -5.1.

First: A95G A103C G120U G135U
Second: C97U G117C
The “polymerase ribozyme fitness (log ratio)” value of the first is lower: -6.78 for the first, -4.37 for the second.

Going from C86U G120A U130C G135U to U96G C102U, the “polymerase ribozyme fitness (log ratio)” value falls from -0.0631 to -2.86.

Compared with C98A, A90C C123U is higher in “polymerase ribozyme fitness (log ratio)” value: -5.14 for the first, 0.206 for the second.

Going from U87G A121C to C85G A119G, the “polymerase ribozyme fitness (log ratio)” value falls from 1.82 to -0.0195.

Going from U92A A108U U112C G113A A121G to C85U C88U, the “polymerase ribozyme fitness (log ratio)” value rises from -6.52 to -0.176.

Going from A90C A100U A111G to C86U A90U, the “polymerase ribozyme fitness (log ratio)” value rises from -1.79 to -1.08.

Compared with A95G C114G, C88U C98A U106G is lower in “polymerase ribozyme fitness (log ratio)” value: -3.45 for the first, -5.05 for the second.

Going from A90C A91C G110A to C85A G110A G127A, the “polymerase ribozyme fitness (log ratio)” value rises from -4.36 to -3.71.

First: U87C G107U
Second: C85G G117C G128U
The “polymerase ribozyme fitness (log ratio)” value of the first is higher: -4.55 for the first, -7.06 for the second.

Compared with C88G G117C U133A, C85U A91C A95G is higher in “polymerase ribozyme fitness (log ratio)” value: -3.79 for the first, -2.23 for the second.

Compared with C89U G120C, C85A A95U A100U is lower in “polymerase ribozyme fitness (log ratio)” value: 0.737 for the first, -3.28 for the second.

Compared with U87C C98A, C85U G135U is higher in “polymerase ribozyme fitness (log ratio)” value: -4.87 for the first, -1.91 for the second.

Compared with C89U C115A, C98A C114U C123G U131C is lower in “polymerase ribozyme fitness (log ratio)” value: 0.206 for the first, -5.24 for the second.

Compared with A95U G120A, A90G C101G C115G is lower in “polymerase ribozyme fitness (log ratio)” value: -0.385 for the first, -2.74 for the second.

Going from C94U U96A to C88G G120C, the “polymerase ribozyme fitness (log ratio)” value rises from -1.02 to -0.00486.

Compared with C88G G120A, C85A G113C G122C U129C is lower in “polymerase ribozyme fitness (log ratio)” value: -1.21 for the first, -4.98 for the second.

Going from A91U U109A to C85U U109A, the “polymerase ribozyme fitness (log ratio)” value rises from -8.07 to -6.03.

First: A90G U125G
Second: U87C A105G
The “polymerase ribozyme fitness (log ratio)” value of the first is higher: -0.567 for the first, -1.78 for the second.

Going from C88U G93A to C88A C123U, the “polymerase ribozyme fitness (log ratio)” value rises from -0.936 to 1.08.

Compared with C85G U130A G135U, C89A A121U U125G is higher in “polymerase ribozyme fitness (log ratio)” value: -3.18 for the first, -0.211 for the second.

Compared with C89A C124U, U92G C123A is lower in “polymerase ribozyme fitness (log ratio)” value: 0.618 for the first, -2.78 for the second.

First: A84U U133G
Second: C88A G113U
The “polymerase ribozyme fitness (log ratio)” value of the first is higher: -0.42 for the first, -2.76 for the second.

Compared with C85A C104U, C86U G113A G127C is lower in “polymerase ribozyme fitness (log ratio)” value: -1.07 for the first, -1.64 for the second.

First: U96A A121C U126A
Second: U96G G117U
The “polymerase ribozyme fitness (log ratio)” value of the first is higher: -0.501 for the first, -2.13 for the second.

Compared with C94A G120C, C89A G120A G128C U132C is lower in “polymerase ribozyme fitness (log ratio)” value: -1.64 for the first, -3.37 for the second.

Going from C86G G120A to C89G A111G G113C, the “polymerase ribozyme fitness (log ratio)” value falls from -0.356 to -3.54.

Going from C88U G110U U125G to C86U C94U C115A, the “polymerase ribozyme fitness (log ratio)” value rises from -2.46 to -0.874.

Compared with U87A C115A, U87A C115U is lower in “polymerase ribozyme fitness (log ratio)” value: 0.108 for the first, -0.739 for the second.

First: U87G G113U
Second: U96A G110U
The “polymerase ribozyme fitness (log ratio)” value of the first is lower: -3.33 for the first, -2.56 for the second.

Going from C89G G120C to C85U U112A G122U U126G, the “polymerase ribozyme fitness (log ratio)” value falls from -0.58 to -4.47.

Compared with A90G C104U U112C A121U U130C, G93A C104A G113C is lower in “polymerase ribozyme fitness (log ratio)” value: 2.04 for the first, -4.27 for the second.

First: C98A C114U
Second: C94A G117U U129A
The “polymerase ribozyme fitness (log ratio)” value of the first is lower: -6.3 for the first, -4.44 for the second.

C85G C97U and C89G G110U are within 0.2 log units of each other in “polymerase ribozyme fitness (log ratio)” value: -2.99 for the first, -2.85 for the second.

Going from A90U U125G to C94U A108U C114U U131G, the “polymerase ribozyme fitness (log ratio)” value falls from -1.11 to -7.59.

First: G93A C115G
Second: U87C C114G
The “polymerase ribozyme fitness (log ratio)” value of the first is lower: -2.4 for the first, -2 for the second.

Compared with C94U A95G, C94U A95C is lower in “polymerase ribozyme fitness (log ratio)” value: -0.3 for the first, -1.19 for the second.

First: U92A G110C
Second: U92A G110A
The “polymerase ribozyme fitness (log ratio)” value of the first is lower: -6.13 for the first, -5.07 for the second.

First: U96G A100U C104U
Second: U87C G120A G127A
The “polymerase ribozyme fitness (log ratio)” value of the first is higher: -0.962 for the first, -1.22 for the second.

Compared with A95G U109C, C86U U112A is higher in “polymerase ribozyme fitness (log ratio)” value: -5.61 for the first, 0.825 for the second.

Compared with U92A U106C C114A, A95C U109A is lower in “polymerase ribozyme fitness (log ratio)” value: -4.09 for the first, -7.08 for the second.

Going from G93A A95C A121U to C97U C101U U116G A118G, the “polymerase ribozyme fitness (log ratio)” value falls from 0.651 to -4.15.

C89U G122U and C89U G122A are within 0.2 log units of each other in “polymerase ribozyme fitness (log ratio)” value: -0.616 for the first, -0.697 for the second.

First: C88U U112G
Second: C94U G128U
The “polymerase ribozyme fitness (log ratio)” value of the first is higher: 0.74 for the first, -1.7 for the second.

Going from C89A C123U C124G to G93C G120U, the “polymerase ribozyme fitness (log ratio)” value falls from 1.14 to -1.78.

Compared with G93C G120C, U87G G93A U112A U133A is higher in “polymerase ribozyme fitness (log ratio)” value: -1.19 for the first, 1.36 for the second.

Compared with C86G U112G, U87A C88U is lower in “polymerase ribozyme fitness (log ratio)” value: 0.00839 for the first, -1.46 for the second.

Compared with C85U G113A, C85U G120A is higher in “polymerase ribozyme fitness (log ratio)” value: -2.02 for the first, -0.267 for the second.

First: C97A A105G
Second: C89A A111U G122A
The “polymerase ribozyme fitness (log ratio)” value of the first is lower: -5.98 for the first, -4.54 for the second.

Going from C94A G110A to A90C C104U A105C, the “polymerase ribozyme fitness (log ratio)” value falls from -2.19 to -5.64.

First: U96A G113A C115A G120C
Second: A90U C114G G117A
The “polymerase ribozyme fitness (log ratio)” value of the first is higher: -3.71 for the first, -4.57 for the second.

First: C94G U109C A121U
Second: G93C C123G
The “polymerase ribozyme fitness (log ratio)” value of the first is lower: -6.64 for the first, -0.285 for the second.

First: G93C U129A
Second: G93U C115U
The “polymerase ribozyme fitness (log ratio)” value of the first is lower: -1.91 for the first, -1.63 for the second.

Going from G93U C115A to G93U U132C, the “polymerase ribozyme fitness (log ratio)” value rises from -2.49 to -1.31.

Going from C89G A111C to C88U U129C, the “polymerase ribozyme fitness (log ratio)” value rises from -2.08 to -0.178.

Compared with C85U C123G, U87A C89U G128A is lower in “polymerase ribozyme fitness (log ratio)” value: 0.896 for the first, -2.15 for the second.

First: G93A G113U C114G
Second: G93U U96G C124A
The “polymerase ribozyme fitness (log ratio)” value of the first is lower: -2.9 for the first, 0.232 for the second.

First: C89U U109C
Second: U87A G122A
The “polymerase ribozyme fitness (log ratio)” value of the first is lower: -3.31 for the first, -0.168 for the second.

With C94A A111U the “polymerase ribozyme fitness (log ratio)” value was -0.728.
